Publication PMC7367873, “Dissecting the sequence determinants for dephosphorylation by the catalytic subunits of phosphatases PP1 and PP2A” (Nature Communications, 2020)

Target: T1, PP2Ac (Homo sapiens, UniProt P67775)
T1 construct: purchased Cayman Chemical 10011237
Assay: Phosphoproteome dephosphorylation assay of HeLa Kyoto lysate with recombinant PP2Ac (TMT phosphoproteomics)
Type: biochemical
Conditions: 1 µM recombinant phosphatase, 1 h at 30 °C, 20 nM Calyculin A, three replicates
Experimental: For phosphoproteomics, HeLa Kyoto cells were incubated with 20 nM Calyculin A (CST, #9902) for 10–15 min. This time point was determined empirically to yield maximal phosphatase inhibition without cells showing pleiotropic effects. Subsequently, cells were placed on ice and washed twice with cold PBS and scraped in lysis buffer (100 mM NaCl, 10 mM Tris, 0.1% IGEPAL, 1 mM EDTA, 1 mM EGTA, 20 nM Calyculin A, 1x cOmplete Mini protease inhibitor cocktail (Sigma), 1 mM DTT, 1 mM MnCl2, pH 7.5). After 10 pushes through an injection needle (21 G, BD), lysate was cleared from the insoluble fraction by centrifugation (10 min, 10^4 rcf, 4 °C). Protein concentration was then determined by a Bradford Assay and equal amounts of 1 mg total protein were incubated with recombinant PP1c/PP2Ac or buffer at a final phosphatase concentration of 1 µM in a total volume of 200 µL for 1 h at 30 °C. Lysates were then immediately placed on ice. PhosStop […] (Roche) was added and proteins were denatured by adding urea to a final concentration of 8 M taking into account the volume increase. Samples were then snap-frozen in liquid nitrogen for storage and subsequent MS analysis.
Treated lysates were reduced (10 mM DTT, 30 °C, 30 min) and alkylated (50 mM chloroacetamide, room temperature, 30 min, in the dark), and then diluted to 1.3 M urea using 40 mM Tris-HCl (pH 7.6). […]

T1 sequence (P67775 1-308 limits assumed): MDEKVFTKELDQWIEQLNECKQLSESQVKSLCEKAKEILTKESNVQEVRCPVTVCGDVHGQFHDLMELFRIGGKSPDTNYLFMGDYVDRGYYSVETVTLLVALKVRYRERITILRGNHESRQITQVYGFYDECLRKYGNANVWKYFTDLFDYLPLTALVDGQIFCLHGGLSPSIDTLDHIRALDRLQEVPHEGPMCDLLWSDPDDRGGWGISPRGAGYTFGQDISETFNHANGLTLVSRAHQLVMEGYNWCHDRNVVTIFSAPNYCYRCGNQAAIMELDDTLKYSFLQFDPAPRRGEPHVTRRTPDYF

PP2Ac: His-tagged recombinant PPP2CA ΔL309, purchased from Cayman Chemical
number of class I p-sites dephosphorylated by PP2A: 1840 p-sites
